Drawing on article PMC10653388, this text covers stoichiometry N for one substance.

The assay concerns the target endogenous S. cerevisiae TREX complex (S. cerevisiae) (UniProt P17629). In words: negative-stain EM.

As usually defined, the stoichiometry N is a count of units in the complex or per binding partner. On to “endogenous S. cerevisiae TREX complex, P17629;P53552;P33441;O13539;P53851;Q07478;Q12159;P25555;P38922”, for which the stoichiometry N was 2.
